# In patent US20040126856A1, “Factor ixa: factor Vllla interaction and methods therefor” (priority 2004, published 2004):
# B1: A2 subunit of factor VIIIa (other)
# chain: SVAKKHPKTWVHYIAAEEEDWDYAPLVLAPDDRSYKSQYLNNGPQRIGRKYKKVRFMAYTDETFKTREAIQHESGILGPLLYGEVGDTLLIIFKNQASRPYNIYPHGITDVRPLYSRRLPKGVKHLKDFPILPGEIFKYKWTVTVEDGPTKSDPRCLTRYYSSFVNMERDLASGLIGPLLICYKESVDQRGNQIMSDKRNVILFSVFDENRSWYLTENIQRFLPNPAGVQLEDPEFQASNIMHSINGYVFDSLQLSVCLHEVAYWYILSIGAQTDFLSVFFSGYTFKHKMVYEDTLTLFPFSGETVFMSMENPGLWILGCHNSDFRNRGMTALLKVSSCDKNTGDYYEDSYEDISAYLLSKNNAIEPR
# notes: also called isolated A2 subunit
# Experiments:
# [1] = test system: T1, A2 subunit of factor VIIIa
# T1 sequence: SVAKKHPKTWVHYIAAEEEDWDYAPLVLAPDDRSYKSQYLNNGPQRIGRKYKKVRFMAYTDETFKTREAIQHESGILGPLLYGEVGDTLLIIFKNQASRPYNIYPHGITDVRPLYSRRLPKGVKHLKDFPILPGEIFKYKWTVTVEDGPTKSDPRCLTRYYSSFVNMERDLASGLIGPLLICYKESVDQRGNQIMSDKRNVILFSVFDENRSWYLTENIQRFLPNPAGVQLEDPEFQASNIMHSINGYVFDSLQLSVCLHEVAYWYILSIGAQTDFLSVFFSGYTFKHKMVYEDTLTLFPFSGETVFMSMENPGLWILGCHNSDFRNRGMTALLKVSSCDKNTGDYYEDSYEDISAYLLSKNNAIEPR
# [2] = molecular target: T2, A2 subunit of factor VIIIa (Homo sapiens, UniProt P00451); test: Apparent KdA2 of dEGR-IXa proteins: inhibition of IXaWT:A2 subunit interaction in the tenase system; format: biochemical; details: 100 nM IXaWT, 30 nM A2 subunit, 250 nM factor X, 25 μM PL; from IC50 by Eq. 3 (FIG. 3); read-out: Apparent KdA2
# T2 construct: cleaved by thrombin at R372-S373, R740-S741, and R1689-S1690 to yield factor VIIIa
# T2 sequence (P00451 392-759): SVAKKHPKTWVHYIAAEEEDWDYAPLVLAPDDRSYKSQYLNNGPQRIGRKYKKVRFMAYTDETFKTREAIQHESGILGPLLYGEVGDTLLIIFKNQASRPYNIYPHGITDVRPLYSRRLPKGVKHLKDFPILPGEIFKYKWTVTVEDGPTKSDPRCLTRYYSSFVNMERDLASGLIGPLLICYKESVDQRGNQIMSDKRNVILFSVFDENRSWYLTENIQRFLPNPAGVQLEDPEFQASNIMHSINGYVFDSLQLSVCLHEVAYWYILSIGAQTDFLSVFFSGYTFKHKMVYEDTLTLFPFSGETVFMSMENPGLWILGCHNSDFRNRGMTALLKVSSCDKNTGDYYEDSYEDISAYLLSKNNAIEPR
# Procedure: Determination of KdA2 of Binding of dEGR-IXa Proteins to A2 Subunit.
# The apparent Kd (termed KdA2) for binding of each dEGR-IXa protein to the A2 subunit was determined by its ability to inhibit factor IXaWT:A2 subunit interaction in the tenase complex as described earlier for intact factor VIIIa (Mather and Bajaj, 1999; Mather et al., 1997). The reactions were carried out as described for the EC50 experiments above except dEGR-IXa and IXaWT were mixed prior to addition of the A2 subunit; this ensured steady state conditions. Mixtures contained 100 nM IXaWT, 30 nM A2 subunit, 250 nM factor X, 25 μM PL, and various concentrations of dEGR-IXa proteins in TBS/BSA, pH 7.5 containing 5 mM CaCl2. The IC50 (concentration of inhibitor required for 50% inhibition) was determined by fitting the data to the IC50 four-parameter logistic equation of Halfman (1981) given below (Eq. 2). [formula]
# where y is the rate of Xa formation in the presence of a given concentration of dEGR-IXa protein represented by x, a is the maximum rate of factor Xa formation in the absence of dEGR-IXa, and s is the slope factor. Each point was weighted equally, and the data were fitted to Equation 2 using the nonlinear regression analysis program GraFit from Erithacus Software. […] To obtain KdA2 values for the interaction of dEGR-IXa proteins with A2, we used the following equation (Eq. 3) as described by Cheng and Prusoff (1973) and further elaborated by Craig (1993). [formula]
# where A is the concentration of IXaWT, and EC50 is the concentration of factor IXaWT that gives a 50% maximum response in the absence of the competitor at a specified concentration of factor X used in the experiment.
# [3] = molecular target: A2 subunit of factor VIIIa (human) (UniProt P00451); test: potentiation of factor X activation by A2 subunit (FIGS. 1 and 2); functional Kd
# [4] = molecular target: A2 subunit of factor VIIIa (human) (UniProt P00451); test: factor Xa generation at rising A2 subunit, 5 nM IXa; factor X >1 µM; functional Kd
# [5] = molecular target: A2 subunit of factor VIIIa (human) (UniProt P00451); test: factor Xa generation at rising A2 subunit, 5 nM IXa; factor X <150 nM; functional Kd
# [6] = molecular target: T3, dEGR-IXaVIIhelix (factor IXaVIIhelix inactivated with dansyl-Glu-Gly-Arg-chloromethyl ketone) (human, UniProt P08709 364-372, active site inactivated with dansyl-Glu-Gly-Arg-chloromethyl ketone (dEGR-ck); gamma-carboxyglutamic acid residues in the Gla domain (normal Gla content)); test: dEGR-IXa competition with 100 nM IXaWT for 30 nM A2 in tenase assay (FIG. 3); apparent KdA2
# T3 construct: domain: helix c162-170; also called dEGR-IXVIIhelix
# [7] = molecular target: T4, dEGR-IXaWT (factor IXaWT inactivated with dansyl-Glu-Gly-Arg-chloromethyl ketone) (human, UniProt P00740 47-190; P00740 227-461, active site inactivated with dansyl-Glu-Gly-Arg-chloromethyl ketone (dEGR-ck); gamma-carboxyglutamic acid residues in the Gla domain (normal Gla content)); test: dansyl fluorescence quenching, 220 nM dEGR-IXa titrated with A2 subunit, bimolecular association fit (FIG. 4)
# T4 construct: also called dEGR-IXWT
# Procedure: (§1) The effect of the A2 subunit on the emission intensity of the dansyl moiety in each dEGR-IXa protein was determined using the SLM AB2 spectrofluorometer. Each reaction mixture contained 220 nM dEGR-IXa in 20 mM Hepes, pH 7.2, 100 mM NaCl, 5 mM CaCl₂, 0.01% Tween, 200 μg/ml BSA and 100 μM PL vesicles. The excitation wavelength was 340 nm (slit width, 8 nm) and the emission wavelength was 540 nm (slit width; 8 nm). First, blank values (in triplicate) were obtained for the buffer containing PL. dEGR-IXa was then added and the emission intensity in the absence of the A2 subunit was recorded. Each reaction mixture was subsequently titrated with the A2 subunit and the emission readings (in triplicate) were obtained at each time point. The fluorescence emission intensity at each point was corrected for increases in the reaction volume prior to analysis of the data. […] Data are presented as F/F₀ where F₀ is the emission intensity in the absence of A2 subunit and F is the intensity at a given A2 subunit concentration.
# [8] = molecular target: T5, dEGR-IXaPCEGF1 (factor IXaPCEGF1 inactivated with dansyl-Glu-Gly-Arg-chloromethyl ketone) (human, UniProt P04070 88-134, limits assumed, active site inactivated with dansyl-Glu-Gly-Arg-chloromethyl ketone (dEGR-ck); gamma-carboxyglutamic acid residues in the Gla domain (normal Gla content)); test: as above
# T5 construct: domain: EGF1
# Procedure: as §1
# [9] = molecular target: T4, dEGR-IXaWT (factor IXaWT inactivated …); test: dEGR-IXa competition with 100 nM IXaWT for 30 nM A2 in tenase assay (FIG. 3); IC50 converted by Cheng-Prusoff; apparent KdA2
# [10] = molecular target: T5, dEGR-IXaPCEGF1 (factor IXaPCEGF1 …); test: as above
# [11] = molecular target: dEGR-IXaR333Q (factor IXaR333Q inactivated with dansyl-Glu-Gly-Arg-chloromethyl ketone) (human, UniProt P00740 47-190; P00740 227-461, active site inactivated with dansyl-Glu-Gly-Arg-chloromethyl ketone (dEGR-ck); gamma-carboxyglutamic acid residues in the Gla domain (normal Gla content)); test: as above
# Chain of dEGR-IXaR333Q (factor IXaR333Q inactivated with dansyl-Glu-Gly-Arg-chloromethyl ketone) (P00740 47-190, form in doubt, chain 1 of 2): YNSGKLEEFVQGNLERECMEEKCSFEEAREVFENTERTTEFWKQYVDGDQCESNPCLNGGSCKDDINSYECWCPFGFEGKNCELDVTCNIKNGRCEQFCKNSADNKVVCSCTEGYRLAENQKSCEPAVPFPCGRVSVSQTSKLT
# Chain of dEGR-IXaR333Q (factor IXaR333Q inactivated with dansyl-Glu-Gly-Arg-chloromethyl ketone) (P00740 227-461 R379Q, form in doubt, chain 2 of 2): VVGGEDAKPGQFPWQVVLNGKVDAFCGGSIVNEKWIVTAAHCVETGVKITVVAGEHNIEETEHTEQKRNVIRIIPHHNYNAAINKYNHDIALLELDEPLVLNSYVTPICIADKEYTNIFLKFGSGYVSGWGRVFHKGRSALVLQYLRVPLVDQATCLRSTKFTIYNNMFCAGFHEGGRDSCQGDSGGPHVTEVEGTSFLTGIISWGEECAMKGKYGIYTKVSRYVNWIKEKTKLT
# T4 sequence (P00740 47-190, form in doubt, chain 1 of 2): as the sequence (P00740 47-190, form in doubt, chain 1 of 2) above
# T4 sequence (P00740 227-461, form in doubt, chain 2 of 2): as the sequence (P00740 227-461 R379Q, form in doubt, chain 2 of 2) above, with Q153R counted along it
# T5 sequence (P04070 other isoform, or with tags, fused parts or gaps limits assumed, form in doubt, chain 1 of 2): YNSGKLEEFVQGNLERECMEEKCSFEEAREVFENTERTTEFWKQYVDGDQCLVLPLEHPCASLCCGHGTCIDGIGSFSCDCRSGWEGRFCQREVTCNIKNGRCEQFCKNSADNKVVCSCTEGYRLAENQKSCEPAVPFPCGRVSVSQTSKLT
# T5 sequence (heavy, as listed by the source limits assumed, form in doubt, chain 2 of 2): as the sequence (P00740 227-461 R379Q, form in doubt, chain 2 of 2) above, with Q153R counted along it
# T3 sequence (light, as listed by the source limits assumed, form in doubt, chain 1 of 2): as the sequence (P00740 47-190, form in doubt, chain 1 of 2) above
# T3 sequence (heavy, as listed by the source limits assumed, form in doubt, chain 2 of 2): as the sequence (P00740 227-461 R379Q, form in doubt, chain 2 of 2) above, with L150R, V151L, D152M, Q153T, A154Q, T155D, R158Q counted along it
molecule,measurement,setting,value
factor IXaPCEGF1 (factor IXa replacement mutant in which the EGF1 domain is replaced by that of protein C),"enhancement of factor X activation (factor Xa generation, S-2222 hydrolysis)",[1],The presence of the A2 subunit in the reaction mixtures enhanced the factor X-activating activity of IXaPCEGF1 to the same extent as that of IXaWT
dEGR-IXaR333Q: IXaR333Q inactivated with dEGR-ck,Kd,[2],~1800 nM
factor IXaPCEGF1 (factor IXa replacement mutant in which the EGF1 domain is replaced by that of protein C) (from UniProt P04070 88-134) (enzyme),EC50,[3],250 nM
same,EC50,[4],200 nM
same,EC50,[5],300 nM
dEGR-IXaPCEGF1: IXaPCEGF1 inactivated with dEGR-ck,Kd,[2],~100 nM
factor IXaVIIhelix (factor IXa replacement mutant in which helix 330-338 (c162-170) is replaced by that of factor VII),"enhancement of factor X activation (factor Xa generation, S-2222 hydrolysis)",[1],it was absent for the IXaVIIhelix
dEGR-IXaWT: IXaWT inactivated with dansyl-Glu-Gly-Arg-chloromethyl ketone (dEGR-ck),Kd,[2],~100 nM
factor IXaWT (wild-type recombinant factor IX activated by factor XIa),"enhancement of factor X activation (factor Xa generation, S-2222 hydrolysis)",[1],The presence of the A2 subunit in the reaction mixtures enhanced the factor X-activating activity of IXaPCEGF1 to the same extent as that of IXaWT
B1,Kd,[6],> 1000 nM
same,Kd,[7],~100 nM
same,Kd,[8],~100 nM
same,Kd,[9],100 nM
same,Kd,[10],114 nM
same,Kd,[11],1850 nM
